Assay results reported in US8133978 (GlaxoSmithKline, dated 2012).

How the values were obtained:
[1] = biological target: T1, Human interleukin-18 (recombinant human IL-18) (human, UniProt Q14116 37-193); assay: SPR, Biacore 3000, antibody captured on Protein A, 25 C
T1 construct: also called hIL-18
T1 sequence: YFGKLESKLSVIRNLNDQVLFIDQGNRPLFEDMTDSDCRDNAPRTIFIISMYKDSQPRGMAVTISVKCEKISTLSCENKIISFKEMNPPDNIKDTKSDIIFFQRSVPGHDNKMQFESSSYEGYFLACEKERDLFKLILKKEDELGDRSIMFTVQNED
Procedure: Biacore™ kinetic analysis of the humanised 2C10 antibodies was carried out on a Biacore™ 3000 instrument using Protein A capture of the antibodies in HBS-EP buffer (Biacore™). Briefly, Protein A was immobilised on a CM5 chip by primary amine coupling, using manufacturers recommended protocol, to densities around 2000-4000 resonance units (RU's). Humanised antibody was then passed over the Protein A surface and captured to levels of around 200-500 RU's, after a period of stabilisation, IL-18 (human or Rhesus) was passed over the captured antibody surface at defined concentrations and binding sensorgrams were obtained. […] All curves were double referenced against a buffer injection instead of IL-18 and the data was fitted to the 1:1 binding model using the global fit parameters in BiaEval 4.1. Off-rate ranking experiments were set up using the same Protein A capture method, however, only a single concentration of IL-18 was used (10 nM). Whilst the data was fitted using the same binding model as the kinetic analysis, since only one concentration of analyte was used on the off-rate is reported, this value is useful for ranking rather than giving an exact kinetic measurement and was used as a way of selecting which antibodies would be further investigated. […]

[2] = biological target: T1, Human interleukin-18 (recombinant human …); assay: cell-based or functional assay
[3] = biological target: T1, Human interleukin-18 (recombinant human …); assay: SPR, Biacore T100, antibody captured on Protein A, 37 C
Procedure: (§1) The methodology was basically the same as for the method used in Example 4a above; Protein A was immobilised on a CM5 chip at densities of between 2000-6000 RU's by primary amine coupling. Runs were carried out in HBS-EP (Biacore™). The anti-IL-18 antibodies were captured to densities of between 100-500 RUs, human IL-18 was passed over this captured surface at concentrations between 16-0.0625 nM, with 0 nM concentration (i.e., a buffer only injection of captured antibody) used for double referencing. Regeneration after each injection of IL-18 was by mild acidic elution using two injections of 10 mM glycine, pH1.5. […] The binding curves obtained were analysed using the analysis software inherent to the T100 machine using the 1:1 model of binding. Runs were carried out at the temperatures indicated.
(§2) This experiment was carried out using the above method at various temperatures. […] Table 5 details the kinetic values used to create these figures.

[4] = biological target: T1, Human interleukin-18 (recombinant human …); assay: SPR, Biacore T100, antibody captured on Protein A, 25 C
Procedure: as §1, §2

[5] = biological target: T1, Human interleukin-18 (recombinant human …); assay: ELISA, IL-18 bp-Fc coated at 0.5 ug/ml, human IL-18 added at 100 ng/ml, antibody titrated, detection anti-human kappa HRP, Abs 490 nm

B1: H1L2 humanised anti-IL-18 antibody (antibody, human IgG1, kappa, V domains shown)
VH: QVQLVQSGAEVKKPGASVKVSCKVSGEISTGYYFHWVRQAPGKGLEWMGRIDPEDDSTKYAERFKDRVTMTEDTSTDTAYMELSSLRSEDTAVYYCTTWRIYRDSSGRPFYVMDAWGQGTLVTVSS
VL: DIQMTQSPSSVSASVGDRVTITCLASEDIYTYLTWYQQKPGKAPKLLIYGANKLQDGVPSRFSGSGSGTDYTLTISSLQPEDFATYYCLQGSKFPLTFGQGTKLEIKR
notes: Human IgG1 / kappa
Kd [1]: 0.0303 nM | % change vs 2C10 (IC50, KG-1 bioassay) [2]: 61.5% | Kd [3]: 0.0223 nM | Kd [4]: 0.0125 nM | EC50 (read off the curve) [5]: ~0.04 µg/mL
